The values that follow come from patent US20210324057A1.

Experiment in all cases: GST pull-down, LC-MS/MS; score of protein identification
Experiment [1] has as its target ATP synthase, β chain.
Experiment [2] concerns the target ATP synthase, O subunit.
The target of experiment [3] is Electron transfer flavoprotein, α subunit.
Sequence of Electron transfer flavoprotein, α subunit (Q99LC5 20-333): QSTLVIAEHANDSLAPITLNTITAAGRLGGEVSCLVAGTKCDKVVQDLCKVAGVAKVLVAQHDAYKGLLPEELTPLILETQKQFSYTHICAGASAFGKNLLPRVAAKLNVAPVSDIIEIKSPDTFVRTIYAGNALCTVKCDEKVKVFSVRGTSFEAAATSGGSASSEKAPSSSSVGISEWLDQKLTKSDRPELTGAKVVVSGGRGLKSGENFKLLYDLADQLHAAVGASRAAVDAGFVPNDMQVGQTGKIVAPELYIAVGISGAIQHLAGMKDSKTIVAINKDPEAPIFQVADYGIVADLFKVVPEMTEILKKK

Sequence of ATP synthase, β chain (P56480 47-529): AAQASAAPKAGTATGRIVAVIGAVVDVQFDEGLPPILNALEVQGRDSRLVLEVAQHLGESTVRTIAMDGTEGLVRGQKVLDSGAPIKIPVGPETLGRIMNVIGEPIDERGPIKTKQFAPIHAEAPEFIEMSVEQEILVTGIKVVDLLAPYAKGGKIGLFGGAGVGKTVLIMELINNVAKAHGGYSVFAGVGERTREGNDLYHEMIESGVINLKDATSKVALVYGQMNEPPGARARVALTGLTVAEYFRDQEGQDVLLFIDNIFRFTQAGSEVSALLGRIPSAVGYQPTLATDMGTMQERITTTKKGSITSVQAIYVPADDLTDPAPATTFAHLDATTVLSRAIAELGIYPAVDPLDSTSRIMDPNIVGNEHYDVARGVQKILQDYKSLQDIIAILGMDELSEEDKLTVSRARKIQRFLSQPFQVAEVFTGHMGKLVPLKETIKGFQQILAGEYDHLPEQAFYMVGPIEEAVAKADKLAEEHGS
Sequence of ATP synthase, O subunit (Q9DB20 24-213): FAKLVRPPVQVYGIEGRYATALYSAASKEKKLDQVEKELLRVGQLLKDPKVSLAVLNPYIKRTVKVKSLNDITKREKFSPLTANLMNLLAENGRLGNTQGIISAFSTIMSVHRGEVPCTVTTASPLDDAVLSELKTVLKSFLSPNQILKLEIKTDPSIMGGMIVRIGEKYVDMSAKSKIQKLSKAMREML

For the substance “GST-LRRC8A (fusion protein comprised of the leucine rich C-terminus of LRRC8A and GST)”, the Unused Score in experiment [1] was found to be 5.94; in experiment [2] it was 8.44; in experiment [3], 11.6.
